B1: [Gd/DOTA-NH-(CH2CH2O)3-CH2-C(═O)-NH-CH2-(1,3-Ph)-C(═O)-Met-Gly-Lys*-Z2(#S)]p-Fab^2 (Fab, V domains shown)
VH: EVQLVESGGGLVQPGGSLRLSCAASGFNIRDTYMHWVRQAPGKGLEWVARIDPANGNSRYVPKFQGRFTISADTSRNTAYLQMNSLRAEDTAVYYCAPFGYYVSDYAMAYWGQGTLVTVSS
VL: DIQLTQSPSSLSASVGDRVTITCRAGESVDIFGVGFLHWYQQKPGKAPKLLIYRASNLESGIPSRFSGSGSRTDFTLTISSLQPEDFATYYCQQTNEDPYTFGQGTKVEIKR
modifications: labeling may sit on this chain; sites not stated; labeling portion (MW 1380) bound via 2-iminothiolane-treated amino groups of the Fab, sites and chain not stated; 1 per Fab by MS
notes: also called Ex-No 35; Conjugate No. 35
B2: (Y-S1-X)p-Fab^2 with Y Gd/DOTA, S1 spacer (d), X -Gly-Lys*-Z2(#N)- (Fab, V domains shown)
VH: EVQLVESGGGLVQPGGSLRLSCAASGFNIRDTYMHWVRQAPGKGLEWVARIDPANGNSRYVPKFQGRFTISADTSRNTAYLQMNSLRAEDTAVYYCAPFGYYVSDYAMAYWGQGTLVTVSS
VL: DIQLTQSPSSLSASVGDRVTITCRAGESVDIFGVGFLHWYQQKPGKAPKLLIYRASNLESGIPSRFSGSGSRTDFTLTISSLQPEDFATYYCQQTNEDPYTFGQGTKVEIKR
modifications: labeling may sit on this chain; sites not stated; labeling portion (MW 954) on amino groups of the Fab, sites and chain not stated; 1-3 per Fab by MS
notes: also called Ex-No 26; conjugate 26
B3: (Y-S1-X)p-Fab^2 with Y Gd/DOTA, S1 -NH-(CH2)3-C(═O)-, X -Gly-Tyr*-CH2-C(═O)-NH-(CH2)2-Z1(#N)- (Fab, V domains shown)
VH: EVQLVESGGGLVQPGGSLRLSCAASGFNIRDTYMHWVRQAPGKGLEWVARIDPANGNSRYVPKFQGRFTISADTSRNTAYLQMNSLRAEDTAVYYCAPFGYYVSDYAMAYWGQGTLVTVSS
VL: DIQLTQSPSSLSASVGDRVTITCRAGESVDIFGVGFLHWYQQKPGKAPKLLIYRASNLESGIPSRFSGSGSRTDFTLTISSLQPEDFATYYCQQTNEDPYTFGQGTKVEIKR
modifications: labeling may sit on this chain; sites not stated; labeling portion (MW 1045) on amino groups of the Fab, sites and chain not stated; 1-3 per Fab by MS
notes: also called Ex-No 36; conjugate 36
B4: (Y-S1-X)p-Fab^2 with Y Gd/DOTA, S1 spacer (a), X -Gly-Lys*-Z2(#N)- (Fab, V domains shown)
VH: EVQLVESGGGLVQPGGSLRLSCAASGFNIRDTYMHWVRQAPGKGLEWVARIDPANGNSRYVPKFQGRFTISADTSRNTAYLQMNSLRAEDTAVYYCAPFGYYVSDYAMAYWGQGTLVTVSS
VL: DIQLTQSPSSLSASVGDRVTITCRAGESVDIFGVGFLHWYQQKPGKAPKLLIYRASNLESGIPSRFSGSGSRTDFTLTISSLQPEDFATYYCQQTNEDPYTFGQGTKVEIKR
modifications: labeling may sit on this chain; sites not stated; labeling portion (MW 936) on amino groups of the Fab, sites and chain not stated; 1-3 per Fab by MS
notes: also called Ex-No 23; conjugate 23
B5: (Y-S1-X)p-Fab^2 with Y Gd/DOTA, S1 spacer (e), X -Met-Gly-Lys*-Z2(#N)- (Fab, V domains shown)
VH: EVQLVESGGGLVQPGGSLRLSCAASGFNIRDTYMHWVRQAPGKGLEWVARIDPANGNSRYVPKFQGRFTISADTSRNTAYLQMNSLRAEDTAVYYCAPFGYYVSDYAMAYWGQGTLVTVSS
VL: DIQLTQSPSSLSASVGDRVTITCRAGESVDIFGVGFLHWYQQKPGKAPKLLIYRASNLESGIPSRFSGSGSRTDFTLTISSLQPEDFATYYCQQTNEDPYTFGQGTKVEIKR
modifications: labeling may sit on this chain; sites not stated; labeling portion (MW 1095) on amino groups of the Fab, sites and chain not stated; 1-2 per Fab by MS
notes: also called Ex-No 32; conjugate 32
B6: [Gd/DOTA-NH-(CH2CH2O)3-CH2-C(═O)-NH-CH2-(1,3-Ph)-C(═O)-Met-Gly-Lys*-Z2(#N)]p-Fab^2 (Fab, V domains shown)
VH: EVQLVESGGGLVQPGGSLRLSCAASGFNIRDTYMHWVRQAPGKGLEWVARIDPANGNSRYVPKFQGRFTISADTSRNTAYLQMNSLRAEDTAVYYCAPFGYYVSDYAMAYWGQGTLVTVSS
VL: DIQLTQSPSSLSASVGDRVTITCRAGESVDIFGVGFLHWYQQKPGKAPKLLIYRASNLESGIPSRFSGSGSRTDFTLTISSLQPEDFATYYCQQTNEDPYTFGQGTKVEIKR
modifications: labeling may sit on this chain; sites not stated; labeling portion (MW 1278) on amino groups of the Fab, sites and chain not stated; 1-2 per Fab by MS
notes: also called Ex-No 29; Conjugate No. 29
B7: [Gd/DOTA-[2,5-(1,2,3,4-tetrahydroisoquinoline)]-C(═O)-Met-Gly-Lys*-Z2(#N)]p-Fab^2 (Fab, V domains shown)
VH: EVQLVESGGGLVQPGGSLRLSCAASGFNIRDTYMHWVRQAPGKGLEWVARIDPANGNSRYVPKFQGRFTISADTSRNTAYLQMNSLRAEDTAVYYCAPFGYYVSDYAMAYWGQGTLVTVSS
VL: DIQLTQSPSSLSASVGDRVTITCRAGESVDIFGVGFLHWYQQKPGKAPKLLIYRASNLESGIPSRFSGSGSRTDFTLTISSLQPEDFATYYCQQTNEDPYTFGQGTKVEIKR
modifications: labeling may sit on this chain; sites not stated; labeling portion (MW 1115) on amino groups of the Fab, sites and chain not stated; 1-2 per Fab by MS
notes: also called Ex-No 33; Conjugate No. 33
B8: (Y-S1-X)p-Fab^2 with Y Gd/DOTA, S1 spacer (b), X -Gly-Lys*-Z2(#N)- (Fab, V domains shown)
VH: EVQLVESGGGLVQPGGSLRLSCAASGFNIRDTYMHWVRQAPGKGLEWVARIDPANGNSRYVPKFQGRFTISADTSRNTAYLQMNSLRAEDTAVYYCAPFGYYVSDYAMAYWGQGTLVTVSS
VL: DIQLTQSPSSLSASVGDRVTITCRAGESVDIFGVGFLHWYQQKPGKAPKLLIYRASNLESGIPSRFSGSGSRTDFTLTISSLQPEDFATYYCQQTNEDPYTFGQGTKVEIKR
modifications: labeling may sit on this chain; sites not stated; labeling portion (MW 950) on amino groups of the Fab, sites and chain not stated; 1-3 per Fab by MS
notes: also called Ex-No 27; conjugate 27

The assay has as its target T1, CEACAM5 (R&D Systems, 4128-CM-050) (human, UniProt P06731 35-685).
T1 construct: Immobilised on the ELISA plate; also called human CEACAM5
T1 sequence (looked up): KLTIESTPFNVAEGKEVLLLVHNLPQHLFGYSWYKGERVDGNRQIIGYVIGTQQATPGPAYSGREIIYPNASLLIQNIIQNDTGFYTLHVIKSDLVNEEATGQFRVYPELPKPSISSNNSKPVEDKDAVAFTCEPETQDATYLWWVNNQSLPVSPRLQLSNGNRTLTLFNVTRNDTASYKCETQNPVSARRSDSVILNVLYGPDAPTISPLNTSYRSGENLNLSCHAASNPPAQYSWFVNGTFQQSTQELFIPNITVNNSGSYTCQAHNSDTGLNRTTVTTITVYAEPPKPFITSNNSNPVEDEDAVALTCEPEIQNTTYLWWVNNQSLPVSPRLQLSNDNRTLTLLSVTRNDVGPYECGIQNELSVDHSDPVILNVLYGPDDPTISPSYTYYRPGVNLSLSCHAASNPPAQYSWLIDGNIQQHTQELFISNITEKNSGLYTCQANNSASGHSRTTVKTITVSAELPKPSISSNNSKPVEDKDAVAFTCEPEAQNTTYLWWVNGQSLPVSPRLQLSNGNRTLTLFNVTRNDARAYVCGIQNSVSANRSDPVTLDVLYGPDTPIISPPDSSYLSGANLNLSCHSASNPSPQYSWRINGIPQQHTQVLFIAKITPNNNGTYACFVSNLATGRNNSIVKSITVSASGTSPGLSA
The experiment in a line: ELISA on immobilised CEACAM5, 4-parameter fit, duplicate. How it is done:
Each anti-human CEACAM5 antibody Fab fragment conjugate prepared in Example 2 was subjected to ELISA to evaluate the binding activity thereof to CEACAM5. In the present test, a phosphate buffer (Nacalai Tesque Inc., 0.1 mol/L-Phosphate Buffer Solution (pH 7.2)) prepared to 10 mM by diluting 10-fold with distilled water was used as a solvent for an antigen immobilization liquid, and 20×PBS/Tween 20 Buffer (Thermo Fisher Scientific Inc., 28352) diluted 20-fold with distilled water was used as a wash liquid. In addition, for bovine serum albumin (BSA) used in the present test, 30% Bovine Serum Albumin solution (Sigma-Aldrich, Inc., A9576-50ML) was added in an appropriate proportion for use. CEACAM5 (R&D Systems, 4128-CM-050) was diluted with a 10 mM phosphate buffer (pH 7.2) to 0.1 μg/mL, and added to a Nunc MaxiSorp White 384 plate (Nunc, 4603272) at 30 μL per well, and the plate was incubated overnight at 4° C. for immobilization. The CEACAM5 immobilization liquid was removed by reverse centrifugation, and then blocking was carried out by adding a PBS/Tween 20 buffer containing 5.0% BSA. Thereafter, the blocking solution was removed by reverse centrifugation, a solution of each CEACAM5 antibody Fab² fragment conjugate described above or a Fab² fragment having no labeling portion (PB009-01) as a control at about 10000 ng/mL was diluted in 14 steps by 3-fold dilution using a PBS/Tween 20 buffer containing 1.0% BSA, and 30 μL was added per well and incubated at room temperature for 60 minutes. The plate was washed 3 times with a PBS/Tween 20 buffer, and Horseradish Peroxidase (HRP)-labeled goat anti-human IgG (H+L chain) antibody (MBL Life Sciences, 206) diluted 1000-fold using a PBS/Tween 20 buffer containing 5.0% BSA was added at 30 μL per well and incubated at room temperature for 30 minutes. The plate was washed 3 times with a PBS/Tween 20 buffer, and ECL Prime Western Blotting DETECTION Reagent (GE Healthcare, RPN2232) as a substrate was added at 30 μL per well. The substrate was incubated at room temperature for 15 minutes, and then a signal value thereof was measured using an Envision counter (PerkinElmer, Inc.).
The test for each antibody was carried out in duplicate, and an EC₅₀ value was calculated using a 4-parameter logistic curve model.
In general terms: An ELISA detects its analyte on a solid surface through an enzyme-linked reagent.
Broadly, the EC50 is the midpoint of the concentration-response curve. A lower EC50 goes with a more potent agent. B1 showed a concentration for a half-maximal effect (EC50) of 0.43 nM. B2: the midpoint of the response, the EC50, lay at 0.3 nM.

Regarding B3, a half-maximal effect (EC50) was put at 0.38 nM. Take B4: the EC50 came out at 0.33 nM. The molecule B5 gave a concentration for a half-maximal effect (EC50) of 0.37 nM. Molecule B6 showed an EC50 of 0.3 nM. As for B7, the concentration giving a half-maximal response (EC50) turned out to be 0.33 nM.

B8 came in with a concentration giving a half-maximal response (EC50) of 0.46 nM.

Source of the values: patent US20220096653A1, “CONJUGATE COMPRISING LIGAND AND CEACAM5 ANTIBODY FAB FRAGMENT” (ASTELLAS PHARMA INC., priority 2019, published 2022).
